Results taken from article PMC12416549 (2024).

T1: TNFR1 (Homo sapiens, UniProt P19438)
T1 chain: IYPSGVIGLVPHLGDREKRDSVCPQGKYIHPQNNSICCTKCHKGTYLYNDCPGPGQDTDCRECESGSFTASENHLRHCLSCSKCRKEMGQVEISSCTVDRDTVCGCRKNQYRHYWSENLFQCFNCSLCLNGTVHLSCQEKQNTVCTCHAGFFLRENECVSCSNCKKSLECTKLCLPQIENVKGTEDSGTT


Target: T1, TNFR1
Experiment: yeast display SC50

| Binder | apparent Kd (screen) [nM] |
| --- | --- |
| F20Q (designed binder) MTLQELLREEALRRAEAEAQRYALELLAEKFPEQKEYLLDLAEEIESQIRSLSGVDVEDVRKFLDKEWAWVKELLAEHPAELAEVEAARAARLAELRAEVEAKVAA | 2.25 |
| A91P (designed binder) MTLQELLREEALRRAEAEAFRYALELLAEKFPEQKEYLLDLAEEIESQIRSLSGVDVEDVRKFLDKEWAWVKELLAEHPAELAEVEAARAPRLAELRAEVEAKVAA | 0.49 |
| R97F (designed binder) MTLQELLREEALRRAEAEAFRYALELLAEKFPEQKEYLLDLAEEIESQIRSLSGVDVEDVRKFLDKEWAWVKELLAEHPAELAEVEAARAARLAELFAEVEAKVAA | 0.49 |
| D56V (designed binder) MTLQELLREEALRRAEAEAFRYALELLAEKFPEQKEYLLDLAEEIESQIRSLSGVVVEDVRKFLDKEWAWVKELLAEHPAELAEVEAARAARLAELRAEVEAKVAA | 2.73 |
| W70E (designed binder) MTLQELLREEALRRAEAEAFRYALELLAEKFPEQKEYLLDLAEEIESQIRSLSGVDVEDVRKFLDKEWAEVKELLAEHPAELAEVEAARAARLAELRAEVEAKVAA | 26.9 |
| L38F (designed binder) MTLQELLREEALRRAEAEAFRYALELLAEKFPEQKEYFLDLAEEIESQIRSLSGVDVEDVRKFLDKEWAWVKELLAEHPAELAEVEAARAARLAELRAEVEAKVAA | 0.653 |
| A76T (designed binder) MTLQELLREEALRRAEAEAFRYALELLAEKFPEQKEYLLDLAEEIESQIRSLSGVDVEDVRKFLDKEWAWVKELLTEHPAELAEVEAARAARLAELRAEVEAKVAA | 0.405 |
| L52T (designed binder) MTLQELLREEALRRAEAEAFRYALELLAEKFPEQKEYLLDLAEEIESQIRSTSGVDVEDVRKFLDKEWAWVKELLAEHPAELAEVEAARAARLAELRAEVEAKVAA | 0.593 |
| K66Y (designed binder) MTLQELLREEALRRAEAEAFRYALELLAEKFPEQKEYLLDLAEEIESQIRSLSGVDVEDVRKFLDYEWAWVKELLAEHPAELAEVEAARAARLAELRAEVEAKVAA | 0.49 |
| E101I (designed binder) MTLQELLREEALRRAEAEAFRYALELLAEKFPEQKEYLLDLAEEIESQIRSLSGVDVEDVRKFLDKEWAWVKELLAEHPAELAEVEAARAARLAELRAEVIAKVAA | 0.49 |
| E18K (designed binder) MTLQELLREEALRRAEAKAFRYALELLAEKFPEQKEYLLDLAEEIESQIRSLSGVDVEDVRKFLDKEWAWVKELLAEHPAELAEVEAARAARLAELRAEVEAKVAA | 0.49 |
| L82F (designed binder) MTLQELLREEALRRAEAEAFRYALELLAEKFPEQKEYLLDLAEEIESQIRSLSGVDVEDVRKFLDKEWAWVKELLAEHPAEFAEVEAARAARLAELRAEVEAKVAA | 0.539 |
| A15G (designed binder) MTLQELLREEALRRGEAEAFRYALELLAEKFPEQKEYLLDLAEEIESQIRSLSGVDVEDVRKFLDKEWAWVKELLAEHPAELAEVEAARAARLAELRAEVEAKVAA | 0.539 |
| E86H (designed binder) MTLQELLREEALRRAEAEAFRYALELLAEKFPEQKEYLLDLAEEIESQIRSLSGVDVEDVRKFLDKEWAWVKELLAEHPAELAEVHAARAARLAELRAEVEAKVAA | 0.79 |
| A91L (designed binder) MTLQELLREEALRRAEAEAFRYALELLAEKFPEQKEYLLDLAEEIESQIRSLSGVDVEDVRKFLDKEWAWVKELLAEHPAELAEVEAARALRLAELRAEVEAKVAA | 0.539 |
| L41W (designed binder) MTLQELLREEALRRAEAEAFRYALELLAEKFPEQKEYLLDWAEEIESQIRSLSGVDVEDVRKFLDKEWAWVKELLAEHPAELAEVEAARAARLAELRAEVEAKVAA | 2.25 |
| K35T (designed binder) MTLQELLREEALRRAEAEAFRYALELLAEKFPEQTEYLLDLAEEIESQIRSLSGVDVEDVRKFLDKEWAWVKELLAEHPAELAEVEAARAARLAELRAEVEAKVAA | 0.539 |
| A90T (designed binder) MTLQELLREEALRRAEAEAFRYALELLAEKFPEQKEYLLDLAEEIESQIRSLSGVDVEDVRKFLDKEWAWVKELLAEHPAELAEVEAARTARLAELRAEVEAKVAA | 0.79 |

| Binder | apparent Kd (screen) [nM] |
| --- | --- |
| K103P (designed binder) MTLQELLREEALRRAEAEAFRYALELLAEKFPEQKEYLLDLAEEIESQIRSLSGVDVEDVRKFLDKEWAWVKELLAEHPAELAEVEAARAARLAELRAEVEAPVAA | 0.539 |
| A11R (designed binder) MTLQELLREERLRRAEAEAFRYALELLAEKFPEQKEYLLDLAEEIESQIRSLSGVDVEDVRKFLDKEWAWVKELLAEHPAELAEVEAARAARLAELRAEVEAKVAA | 0.49 |
| A19L (designed binder) MTLQELLREEALRRAEAELFRYALELLAEKFPEQKEYLLDLAEEIESQIRSLSGVDVEDVRKFLDKEWAWVKELLAEHPAELAEVEAARAARLAELRAEVEAKVAA | 2.05 |
| Q48L (designed binder) MTLQELLREEALRRAEAEAFRYALELLAEKFPEQKEYLLDLAEEIESLIRSLSGVDVEDVRKFLDKEWAWVKELLAEHPAELAEVEAARAARLAELRAEVEAKVAA | 2.73 |
| F20I (designed binder) MTLQELLREEALRRAEAEAIRYALELLAEKFPEQKEYLLDLAEEIESQIRSLSGVDVEDVRKFLDKEWAWVKELLAEHPAELAEVEAARAARLAELRAEVEAKVAA | 1.05 |
| Q48D (designed binder) MTLQELLREEALRRAEAEAFRYALELLAEKFPEQKEYLLDLAEEIESDIRSLSGVDVEDVRKFLDKEWAWVKELLAEHPAELAEVEAARAARLAELRAEVEAKVAA | 22.2 |
| A88Y (designed binder) MTLQELLREEALRRAEAEAFRYALELLAEKFPEQKEYLLDLAEEIESQIRSLSGVDVEDVRKFLDKEWAWVKELLAEHPAELAEVEAYRAARLAELRAEVEAKVAA | 1.05 |
| V100D (designed binder) MTLQELLREEALRRAEAEAFRYALELLAEKFPEQKEYLLDLAEEIESQIRSLSGVDVEDVRKFLDKEWAWVKELLAEHPAELAEVEAARAARLAELRAEDEAKVAA | 0.593 |
| Q34K (designed binder) MTLQELLREEALRRAEAEAFRYALELLAEKFPEKKEYLLDLAEEIESQIRSLSGVDVEDVRKFLDKEWAWVKELLAEHPAELAEVEAARAARLAELRAEVEAKVAA | 0.653 |
| A88W (designed binder) MTLQELLREEALRRAEAEAFRYALELLAEKFPEQKEYLLDLAEEIESQIRSLSGVDVEDVRKFLDKEWAWVKELLAEHPAELAEVEAWRAARLAELRAEVEAKVAA | 0.49 |
| R21E (designed binder) MTLQELLREEALRRAEAEAFEYALELLAEKFPEQKEYLLDLAEEIESQIRSLSGVDVEDVRKFLDKEWAWVKELLAEHPAELAEVEAARAARLAELRAEVEAKVAA | 0.49 |
| E77Y (designed binder) MTLQELLREEALRRAEAEAFRYALELLAEKFPEQKEYLLDLAEEIESQIRSLSGVDVEDVRKFLDKEWAWVKELLAYHPAELAEVEAARAARLAELRAEVEAKVAA | 0.49 |
| K30E (designed binder) MTLQELLREEALRRAEAEAFRYALELLAEEFPEQKEYLLDLAEEIESQIRSLSGVDVEDVRKFLDKEWAWVKELLAEHPAELAEVEAARAARLAELRAEVEAKVAA | 0.49 |
| L93N (designed binder) MTLQELLREEALRRAEAEAFRYALELLAEKFPEQKEYLLDLAEEIESQIRSLSGVDVEDVRKFLDKEWAWVKELLAEHPAELAEVEAARAARNAELRAEVEAKVAA | 0.79 |
| F20E (designed binder) MTLQELLREEALRRAEAEAERYALELLAEKFPEQKEYLLDLAEEIESQIRSLSGVDVEDVRKFLDKEWAWVKELLAEHPAELAEVEAARAARLAELRAEVEAKVAA | 5.31 |
| F20R (designed binder) MTLQELLREEALRRAEAEARRYALELLAEKFPEQKEYLLDLAEEIESQIRSLSGVDVEDVRKFLDKEWAWVKELLAEHPAELAEVEAARAARLAELRAEVEAKVAA | 10.4 |
| Q34H (designed binder) MTLQELLREEALRRAEAEAFRYALELLAEKFPEHKEYLLDLAEEIESQIRSLSGVDVEDVRKFLDKEWAWVKELLAEHPAELAEVEAARAARLAELRAEVEAKVAA | 0.869 |
